From patent publication US20240218057A1 (ROCKEFELLER UNIVERSITY, published 2024)
Where a chain is given by its changes, count along the chain named.

B1: C868 (antibody, V domains shown)
VH: QVQLQESGPRLVKPSETLSLTCIVSGGSVSSNNFYWSWIRQPPGKRLEWIGYFYNSGSSKYNPSLKSRVTISGDTSKNQFSLKLSSVTAADTAVYYCARETFFYDRTGHYKSDGFDVWGQGTMVTVSS
VL: DIQMTQSPSTLSASVGDRVTISCRASQNISSWLAWYQQEAGKAPKLLIYKASSLESGVPSRFSGSGSGTEFTLTISSLQPGDFATYYCQQYNIYSYTFGQGTKLEIK
notes: IgG; V domains only
B2: C869 (antibody, V domains shown)
VH: QVQLVESGGGVVQPGTSLRLSCAASGFTFSSFGMNWVRQAPGKGLEWVAVIFFDGSKTYYADSVKGRFTISRDNSKNTLYLQMNSLRTEDTAVYYCAKGQLRLGEFDDYWGQGTLVTVSS
VL: DIQMTQSPSSLSASVGDRVTITCRASQDIRDDLNWYQHKPGKAPKLLIYTASSLQSGVPSRFSGSGSGTDFTLTISRLQPEDFASYYCLQDHNYPLTFGQGTKLEIK
notes: IgG; V domains only
B3: C870 (antibody, V domains shown)
VH: EVQLVESGGGLVQPGKSLRLSCAGSGFAFSSYHMNWVRQAPGKGLEWVAYISSGSSTIHYADSVKGRFTISRDNAKNSFYLQMNSLRAEDTALYYCARAIVGTKGYMDVWGKGTTVTVSS
VL: QSALTQPASVSGSPGQSVTISCTGTRSDVGSYDLVSWYQLHADKAPKLIIYEVTSRPSGISTRFSGSKSGNTASLTISGLQAEDEADYYCCSYAGTTWLFGGGTRLTVL
notes: IgG; V domains only
B4: C862 (antibody, V domains shown)
VH: QVQLQESGPGLVKPSQTLSLTCTVSGASISSSEHYWSWIRQPPGKGLEWIGYISYSGGTYQNPSLQSRMTLSMDASKNQFSLKLSSVTAADTAVYFCARLNTMIVMINGVFDVWGQGTMVTVSS
VL: DIQMTQSPSSLSAFVGDRVTITCQASQDINKYVNWYQQKPGKAPKLLIYDASNLQTGVPSRFSGSGSGTHFTFTISSLQPEDFATYYCQEYDNLFSISFGQGTRLEIK
notes: IgG; V domains only
B5: C894 (antibody, V domains shown)
VH: EVQLVQSGAEVKKPGESLRISCKGSGYSFTGYWISWVRQMPGKGLEWMGRIDPSDSYTNYSPSFEGHVTFSADTALSTAYLQWSSLQASDTAIYFCGRIAPPGRGSYYPTQNYMDVWGKGTTVTVSS
VL: EIVLTQSPGTLSLSPGERATLSCTADQSVPNSYLAWYQHKPGQAPRLLIYGASSRATGIPDRFSGSGSGIDFTLTISRLEPEDFAVYYCQQYGSLLLTFGGGTKVEIK
notes: IgG; V domains only
B6: C871 (antibody, V domains shown)
VH: EVQLVESGGGLIQTGGSLKLSCAASGFIVTNNYMSWVRQAPGKGLEWVSVIYSGGTTYYADSVKGRFTISRDISKNTLYLQMNSLKAEDTAVYYCAREGDVEGISDSWSGYSRDRYYFDHWGQGTLVTVSS
VL: QSALTQPASVSGSPGQSITISCTGTSSDVGGYNYVSWYQQHPGKAPKLMIYDVSNRPPTISNRFSGSKSGNTASLIISGLQPEDEADYYCSSFTSNNTRVFGTGTKVTVL
notes: IgG; V domains only
B7: C872 (antibody, V domains shown)
VH: EVQLVESGGGLIQPGGSLRLSCAASGFIVSNNYISWVRQAPGKGLEWVSVIYSGGTTYYADSVKGRFSISRDTSKNTVYLQINNLRAEDTAVYYCAREGDVDGNYGFWSGYSRDRYYFDYWGQGTLVTVSS
VL: QSALTQPASVSGSPGQSITISCTGTSSDVGAYNYVAWYQQHPGKAPKLMVYDVSKRPSGVSNRFSGSKSGNTASLTISGLQTEDEGDYYCCSYTTNTTRVFGTGTMLTVL
notes: IgG; V domains only
B8: C873 (antibody, V domains shown)
VH: QVQLVQSGPEVKKPGASVKVSCKASGYIFTDYSIHWVRQAPGQGLEWMGWINPNSGGGNSAQIFKGRATMARDTSITTVYMDLSGLRSDDTAVYYCARGPLFHKVVYESSSGFHDGLDFWGQGTMVTVSS
VL: QSALTQPASVSGSPGQSVTISCTGTSSDVGGYNFLSWYQQHPGKAPKLLLYEVINRPSGVSDRFSGSKSGNTASLTISGLQAEDEADYYCNSYTSNFTWVFGGGTHLTV
notes: IgG; V domains only
B9: C875 (antibody, V domains shown)
VH: QVQLVQSGAEVKQPGASVKISCKASGYIFTTYFMHWVRQAPGQGLEWLGIIDPTISGASLAQKFQGRVTMTSDTSTSTVYMEMRSLRSDDTALYFCARASTSTSSWSEALSLGSWGQGTLVTVSS
VL: QSVLTQPPSVSGAPGQGVSISCTGSSSNVGAGYGVHWYQQLPGTTPKLLIYDNNSRPAGVPDRFSGSKSGTSASLAIAGLQPEDEADYYCQSWDNGLSGSGVVFGGGTKVTVL
notes: IgG; V domains only
B10: C877 (antibody, V domains shown)
VH: EVQLVESGGGLIPPGGSLRLSCAASGIIVSRNYMSWVRQTPGKGLEWVSVMYAGGTKEYADSVKGRFIISRDDSNNTLYLQMNSLRAEDTAVYYCARDLIVLGVDVWGQGTTVTVSS
VL: DIQLTQSPSFLSASVGDRVTITCRASQGISNYLAWYQQKPGKAPKLLIYAASTLQSGVPSRFSGSGSGTEFTLTISSLQPEDFATYYCQLLNSYPMCSFGQGTKLEIK
notes: IgG; V domains only
B11: C885 (antibody, V domains shown)
VH: QVQLQESGPGLVKPSQTLSLTCAVSGDSIRSGGYYWSWVRQHPGRGLEWIGYIYFSGTTYYNPSLKSRVTISVDTSEKQFSLKLTSVTDADTAVYFCARVKGWLRGYFDYWGQGALVTVSS
VL: NFMLTQSHSVSESPGKTVTISCTGSSGNIVNNYVQWYQQRPGSAPIIVIYEDTQRPSGVPDRFSGSIDTSSNSASLTISGLKTEDEADYYCQSYDSGSHVVFGGGTKLTV
notes: IgG; V domains only
B12: C879 (antibody, V domains shown)
VH: QVQLQESGPGLVKPSQTLSLTCGVSGDSISSGGHFWSWVRQHPGTGLEWIAYSPFSGTTYYNPSLKSRVTLSVDTSKNQFFLSLTSVTDADTAVYFCARVKGWLRGYFDHWGQGVLVTVSS
VL: B11 VL with S7P, G24A, T53A, D95E, S96I, G97D, K107R
notes: IgG; V domains only
B13: C884 (antibody, V domains shown)
VH: QVQLQQWGAGLLKPSETLSLTCVVYGGSFSAYYWSWIRQPPGKGLEWIGEINHSGSTNYKSSLQSRVTISVDTSKNQFSLKLSSVTAADTAVYYCARETGTYGTFDHWGQGTLVTVSS
VL: EIVLTQSPGTLSLSPGERATLSCRASQSVSSTYLAWYQQKPGQAPRLLIYGASSRATGIPDRFSGSGSGTDFTLTISRLEPEDFAVYYCQQYAFSVWTFGQGTKVEI
notes: IgG; V domains only
B14: C880 (antibody, V domains shown)
VH: QVQLQQWGAGLLKPSETLSLTCAVYGGSFSDYYWSWIRQPPGKGLEWIGENNHSGKTNYNPSLENRVTISVDTSKNQFSLKLTSVTAADTAVYYCARESGSYGTFDYWGQGTLVTVSS
VL: EIVLTQSPGTLSLSPGERATLSCRASQSVSSAYLAWYQQKPGQAPRLLIYGASSRATGIPDRFSGSGSGTDFTLTISRLEPEDFAVYFCQQYAYTIWTFGQGTKVEIK
notes: IgG; V domains only
B15: C881 (antibody, V domains shown)
VH: EVQLVESGGGLIQPGGSLRLSCAVSGVAVSTNYMSWVRQAPGQGLEWVSTIYSGDTTYYSDSVKGRFTISRDNSKNTFYLQMNSLRVPDTAVYYCARLGGVFNGFNGSFDYWGQGTLVTVS
VL: QSALTQPASVSGSPGQSITISCIGTSSDFENYNLVSWYQQHPGKAPKVMIYEDTKRPSGVSNRFSGSKSANTASLTISGLQAEDEAEYYCCSYAGASTWVFGGGTRVTVV
notes: IgG; V domains only
B16: C882 (antibody, V domains shown)
VH: QVQLVESGGGVVQPGRSLRLSCAASGFTFIRYNMHWVRQAPGKGLEWVAVIWYDGSNKYYADSVKGRFTISRDNSKNTLYLQMNSLRAEDTAVYYCARDPMIVVVEMDYWGQGTLVTVSS
VL: DVVMTQSPLSLPVTLGQPASISCNSSQSLVHTDGNTYLNWFQQRPGQSPRRLIYKVSNRDSGVPDRFSGSGSDTDFTLQISRVEADDVGVYYCMQGSHWPYTFGQGTKLEIK
notes: IgG; V domains only
B17: C887 (antibody, V domains shown)
VH: EVQLVESGGDLVQPGGSLRLSCAASGFTFTTYSMSWVRQAPGKGLEWISYINSGSANIHYADSVKGRFTVSRDNAKNSLYLQMNSLRDEDTAVYYCARGDCLSSSCYSLDYWGQGALVTVSS
VL: DIQMTQSPSSLSASVGDRVTITCRASQSITSYLSWYLQKPGEAPKLLIYAASILQSGVPSRFGGNGSGTDFTLTISSLQPEDFATFYCQQTYRSPLTFGGGTKVEIK
notes: IgG; V domains only
B18: C886 (antibody, V domains shown)
VH: B17 VH with T28S, F29V, Y32N, S33A, S35A, S53I, H59Q, V70I, L102T
VL: DIQMTQSPSSLSASVGDRVSITCRASQTINTHLSWYLQKPGEAPRLLVYAASTLHSGVPSRFSGSGSGTDFTLTISSLQPEDFATFYCQQTYRFPLTFGGGTKVEIK
notes: IgG; V domains only
B19: C888 (antibody, V domains shown)
VH: EVQLVESGGGLVQPGGSLRLSCAASGFTVSSNYMSWVRQAPGKGLEWVSVIYSGGSAYYADSVKGRFTISRDNSKNTLYLQMNSLRAEDTAVYYCARDLRDQDGYSYGAFDYWGQGTLVTVSS
VL: QSALTQPASVSGSPGQSITISCTGTSSDVGGYNYVSWYQQHPGKAPKLMIYDVSNRPSGVSNRFSGSKSGNTASLTISGLQAEDEADYYCSSYTSSSSWVFGGGTKLTVL
notes: IgG; V domains only
B20: C889 (antibody, V domains shown)
VH: EVQLVESGGGLVQPGGSLRLSCAVSGFTVSSNYMTWVRQAPGKGLEWVSLIYSGTSAFYADSVKGRFTISRDNSKNTLYLQMSSLRVNDTAIYYCARDLRKDDGYSYGAFDYWGQGTLVTVSS
VL: QSALTQPASVSGSPGQSITISCSGTSSDVGAHNYVSWYQQYPGKAPKLMIFDVTDRPSGVSNRFSGSKSGNTASLTISGLQAEDEADYYCTSYTTNRSWVFGGGTKVTVL
notes: IgG; V domains only
B21: C890 (antibody, V domains shown)
VH: QVQLVQSGAEVKKPGSSVKASCKASGGTFSTYTISWVRQAPGHGLEWMGRIIPIFGTTKYAQKFQGRVTITADESTTTAYLELSSLRSEDTAVYYCTINTQWDLVPRWGQGTLVTVSS
VL: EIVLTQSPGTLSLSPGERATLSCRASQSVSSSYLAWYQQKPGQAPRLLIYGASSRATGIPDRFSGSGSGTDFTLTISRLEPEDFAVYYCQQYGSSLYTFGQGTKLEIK
notes: IgG; V domains only
B22: C891 (antibody, V domains shown)
VH: EVQLVESGGGLVKPGGSLRLSCAVSGFTFSNVWMSWVRQAPGKGLEWVGRIKSKTDGGTTDYAAPVKGRFTISRDDSKNTLYLQMNSLKTEDTAVYYCTSQLWLRGPGDYWGQGTLVTVSS
VL: NFMLTQPHSVSESPGKTVTISCTGSSGSIASNYVQWYQQRPGSAPTTVIYEDNQRPSGVPDRFSGSIDSSSNSASLTISGLKTEDEADYYCQSYDSSLNWVFGGGTKLTVL
notes: IgG; V domains only
B23: C892 (antibody, V domains shown)
VH: EVQLVESGGGLVKPGGSLKVSCTASGFTFTDAWMSWVRQAPGKGLEWVGRIKSRAYGGTTDYGAPVQGRFTISRDDSINTLYLQMNSLTAEDTAVYYCTSQLWLRGPGDYWGQGTLVTVSS
VL: B22 VL with Q35H, S43G, S69I, A87G, S97G, L98V
notes: IgG; V domains only

target: T1, SARS-COV-2 RBD (SARS-COV-2, UniProt P0DTC2 319-539); assay: ELISA, RBD coated
T1 construct: also called WT RBD

Point of comparison: B12, EC50 4.25 ng/mL. Against it:
- B1 — within 1.5-fold, 3.39 ng/mL
- B2 — within 1.5-fold, 3.14 ng/mL
- B3 — 2-fold lower, 2.17 ng/mL
- B4 — 2-fold lower, 2.14 ng/mL
- B5 — 4-fold higher, 16.8 ng/mL
- B6 — 2.8-fold lower, 1.52 ng/mL
- B7 — 1.9-fold lower, 2.19 ng/mL
- B8 — within 1.5-fold, 4.05 ng/mL
- B9 — within 1.5-fold, 3.5 ng/mL
- B10 — 1.7-fold lower, 2.53 ng/mL
- B11 — 1.8-fold higher, 7.45 ng/mL
- B13 — within 1.5-fold, 4.22 ng/mL
- B14 — 1.9-fold lower, 2.2 ng/mL
- B15 — 2.3-fold lower, 1.88 ng/mL
- B16 — within 1.5-fold, 2.9 ng/mL
- B17 — within 1.5-fold, 3.2 ng/mL
- B18 — 1.7-fold lower, 2.48 ng/mL
- B19 — 3-fold lower, 1.44 ng/mL
- B20 — 5.3-fold lower, 0.8 ng/mL
- B21 — 2.3-fold higher, 9.68 ng/mL
- B22 — 2-fold lower, 2.14 ng/mL
- B23 — 2.3-fold lower, 1.83 ng/mL
